Laboratory results: PMC11417369, “DNA sequence and chromatin differentiate sequence-specific transcription factor binding in the human malaria parasite Plasmodium falciparum”

T1: AP2-LT D1 (Plasmodium falciparum, UniProt Q8IAM1 2520-2577)
T1 sequence: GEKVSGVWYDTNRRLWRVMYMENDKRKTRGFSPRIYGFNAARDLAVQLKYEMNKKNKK

T2: PF3D7_0420300 D1 (Plasmodium falciparum, UniProt Q8I1N6 1956-2015)
T2 sequence: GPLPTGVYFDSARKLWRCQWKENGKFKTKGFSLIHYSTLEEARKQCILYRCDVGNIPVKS

B1: CACACA_negctrl_site1820 (dsDNA)
DNA 1: AGAATTGTTGTTAAAGAATTCTTTTTTATCCTTCCC
DNA 2: GGGAAGGATAAAAAAGAATTCTTTAACAACAATTCT
B2: CACACA_negctrl_site1633 (dsDNA)
DNA 1: AAAAATTAAAATATAACTAATTAATTTGTATTCATT
DNA 2: AATGAATACAAATTAATTAGTTATATTTTAATTTTT
B3: CACACA_negctrl_site1634 (dsDNA)
DNA 1: TTGGTAAATATATTTTGAATATAAGAAATATAGACG
DNA 2: CGTCTATATTTCTTATATTCAAAATATATTTACCAA
B4: CACACA_site7149 (dsDNA)
DNA 1: CCCCCCCACGAACACACACACATACATACCACATAT
DNA 2: ATATGTGGTATGTATGTGTGTGTGTTCGTGGGGGGG
B5: CACACA_negctrl_site687 (dsDNA)
DNA 1: GTTAAACATCTTCTGTGATATGTTAGAATATTATTT
DNA 2: AAATAATATTCTAACATATCACAGAAGATGTTTAAC
B6: CACACA_negctrl_site1330 (dsDNA)
DNA 1: TAATAAATTCAAAACATAAAAAGGAAAAAAAAAAAA
DNA 2: TTTTTTTTTTTTCCTTTTTATGTTTTGAATTTATTA
B7: CACACA_negctrl_site94 (dsDNA)
DNA 1: TTTTTTTTTTTTTTTTTTTTTTTCTACCTATTTATT
DNA 2: AATAAATAGGTAGAAAAAAAAAAAAAAAAAAAAAAA
B8: CACACA_negctrl_site1460 (dsDNA)
DNA 1: TATTTTACATAAAAGAAAAAAAAAAAAAAAAAAAAA
DNA 2: TTTTTTTTTTTTTTTTTTTTTCTTTTATGTAAAATA
B9: CACACA_negctrl_site1062 (dsDNA)
DNA 1: TTATATGCATCCAAAAAGGAATGTTTTTAGAGAATC
DNA 2: GATTCTCTAAAAACATTCCTTTTTGGATGCATATAA
B10: CACACA_negctrl_site122 (dsDNA)
DNA 1: TCTGGATTGGATTACAAGAAAATAAAATATAAAATA
DNA 2: TATTTTATATTTTATTTTCTTGTAATCCAATCCAGA
B11: CACACA_negctrl_site1666 (dsDNA)
DNA 1: AAAAAAAAAAAAAAATTAAAGTAATGGAAAAAAAAA
DNA 2: TTTTTTTTTCCATTACTTTAATTTTTTTTTTTTTTT
B12: CACACA_negctrl_site1417 (dsDNA)
DNA 1: AAAAATATTATGATGTTTATTAGAAAGGAAAAAACT
DNA 2: AGTTTTTTCCTTTCTAATAAACATCATAATATTTTT
B13: CACACA_negctrl_site1656 (dsDNA)
DNA 1: TTTTGATCTGAAGGAACCTAAAAAGGGAAGAGAAAA
DNA 2: TTTTCTCTTCCCTTTTTAGGTTCCTTCAGATCAAAA
B14: CACACA_negctrl_site1268 (dsDNA)
DNA 1: ATATTTTTATGATGTATCCAAGAAATGGAACTATAT
DNA 2: ATATAGTTCCATTTCTTGGATACATCATAAAAATAT
B15: CACACA_negctrl_site1412 (dsDNA)
DNA 1: TATATTTGGTTTCATTCATTTTTATAGAAATCTCAA
DNA 2: TTGAGATTTCTATAAAAATGAATGAAACCAAATATA
B16: CACACA_negctrl_site1698 (dsDNA)
DNA 1: TTATAATAAAAAAATTCCTAAGTCCGTATATATTAT
DNA 2: ATAATATATACGGACTTAGGAATTTTTTTATTATAA
B17: CACACA_negctrl_site1518 (dsDNA)
DNA 1: AAGGGAAAATAATAAAAGAAAAAGAAAAAAAAAAAA
DNA 2: TTTTTTTTTTTTCTTTTTCTTTTATTATTTTCCCTT
B18: CACACA_site367 (dsDNA)
DNA 1: CACCCACCCAGACACACACACACACCCCCACCCATA
DNA 2: TATGGGTGGGGGTGTGTGTGTGTGTCTGGGTGGGTG
B19: CACACA_negctrl_site1031 (dsDNA)
DNA 1: ATTATTTGAACAACAAAAAAAAAGAAAAGAAAAGAA
DNA 2: TTCTTTTCTTTTCTTTTTTTTTGTTGTTCAAATAAT
B20: CACACA_negctrl_site377 (dsDNA)
DNA 1: GTATAACAACTGATAAAAGAAAAAAAATTTATTATT
DNA 2: AATAATAAATTTTTTTTCTTTTATCAGTTGTTATAC
B21: CACACA_negctrl_site97 (dsDNA)
DNA 1: AATAAAGGAAATAAATAATTTATTTTGTAAAATATG
DNA 2: CATATTTTACAAAATAAATTATTTATTTCCTTTATT
B22: CACACA_negctrl_site1631 (dsDNA)
DNA 1: TTTTAATTAAATACAAAAAAAAAAAAAAAAAAAAAA
DNA 2: TTTTTTTTTTTTTTTTTTTTTTGTATTTAATTAAAA
B23: CACACA_negctrl_site1475 (dsDNA)
DNA 1: AATGATTTTCAATCGAAATGAAACTTAGAAGATATA
DNA 2: TATATCTTCTAAGTTTCATTTCGATTGAAAATCATT
B24: CACACA_negctrl_site1708 (dsDNA)
DNA 1: AAAACTTTTTTAACAGAAAAATAGGGATACAATATA
DNA 2: TATATTGTATCCCTATTTTTCTGTTAAAAAAGTTTT
B25: CACACA_negctrl_site982 (dsDNA)
DNA 1: ATTTTTTTTTTTTTTTTTTTTTTTTTTGAATTCACA
DNA 2: TGTGAATTCAAAAAAAAAAAAAAAAAAAAAAAAAAT
B26: CACACA_site2303 (dsDNA)
DNA 1: CATATTCCCCCCCACACACACACACCCATACATACC
DNA 2: GGTATGTATGGGTGTGTGTGTGTGGGGGGGAATATG
B27: CACACA_negctrl_site1333 (dsDNA)
DNA 1: AATTAAGTTAAACATTAAAAAAAACAAAAAATTAAA
DNA 2: TTTAATTTTTTGTTTTTTTTAATGTTTAACTTAATT
B28: CACACA_negctrl_site1493 (dsDNA)
DNA 1: TGTTCTTATTTTATAAGCATATAATTAATCATAATG
DNA 2: CATTATGATTAATTATATGCTTATAAAATAAGAACA
B29: CACACA_negctrl_site1516 (dsDNA)
DNA 1: TAACCAAAAAAAAATATTTAAAATAAATATATATAT
DNA 2: ATATATATATTTATTTTAAATATTTTTTTTTGGTTA
B30: CACACA_negctrl_site1682 (dsDNA)
DNA 1: TGTTATATCAATAATATATAATAATACCCTTCTTTT
DNA 2: AAAAGAAGGGTATTATTATATATTATTGATATAACA
B31: CACACA_negctrl_site908 (dsDNA)
DNA 1: TTATGGATGGACAATAATAAAATTTTTACTTTTATT
DNA 2: AATAAAAGTAAAAATTTTATTATTGTCCATCCATAA
B32: CACACA_negctrl_site949 (dsDNA)
DNA 1: TATATATGGGTACTAATTCCTTTAATTTCTTTAATT
DNA 2: AATTAAAGAAATTAAAGGAATTAGTACCCATATATA
B33: CACACA_negctrl_site667 (dsDNA)
DNA 1: TTATATATAAACATAAAAAGAAATATATTATGTATA
DNA 2: TATACATAATATATTTCTTTTTATGTTTATATATAA
B34: CACACA_negctrl_site1157 (dsDNA)
DNA 1: TTTTTGTATTCTACCTTAACAATCTTAAAGATTTTT
DNA 2: AAAAATCTTTAAGATTGTTAAGGTAGAATACAAAAA
B35: CACACA_site3850 (dsDNA)
DNA 1: TAAAATAAAACAAACACACACACACCCCCACAAAAA
DNA 2: TTTTTGTGGGGGTGTGTGTGTGTTTGTTTTATTTTA
B36: CACACA_negctrl_site43 (dsDNA)
DNA 1: TTCTTAATTCATACCATCAAAACATTTATTCATATC
DNA 2: GATATGAATAAATGTTTTGATGGTATGAATTAAGAA
B37: CACACA_negctrl_site1605 (dsDNA)
DNA 1: GTTTTTTTATAAAATTTTTATATAATTCTTTTATAA
DNA 2: TTATAAAAGAATTATATAAAAATTTTATAAAAAAAC
B38: CACACA_negctrl_site1356 (dsDNA)
DNA 1: TGTTTAACACATGTTTCAAACAAAAAAAAAAAGACA
DNA 2: TGTCTTTTTTTTTTTGTTTGAAACATGTGTTAAACA
B39: CACACA_negctrl_site1075 (dsDNA)
DNA 1: AATAAAAAAAAAAAAAAAAAAAAAAAGACACTAAAA
DNA 2: TTTTAGTGTCTTTTTTTTTTTTTTTTTTTTTTTATT
B40: CACACA_negctrl_site996 (dsDNA)
DNA 1: GAAAAAAAAAAAAAAAAAAAAAGGAAAAAAGTGAAA
DNA 2: TTTCACTTTTTTCCTTTTTTTTTTTTTTTTTTTTTC
B41: CACACA_negctrl_site338 (dsDNA)
DNA 1: TCGTCTCAATAATTATAATAAAAAAATTCCTAAGTC
DNA 2: GACTTAGGAATTTTTTTATTATAATTATTGAGACGA
B42: CACACA_negctrl_site847 (dsDNA)
DNA 1: TTTTAAAATAAAAAAATAAAAAAAGGGGAAAAAAAA
DNA 2: TTTTTTTTCCCCTTTTTTTATTTTTTTATTTTAAAA

Each binder was assayed against T1, AP2-LT D1 (assay: gcPBM; about 25 ug protein; PBS, 1% milk, 0.2 mg/ml BSA, salmon testes DNA, 0.03% Triton X-100). Conditions: tags: N-terminal GST (pGEX-4T-1), kept; label: surface-attached array probe.

| Binder | binding signal |
| --- | --- |
| B1 | 8.88 ln median PBM intensity, better of two orientations |
| B2 | 8.76 ln median PBM intensity, better of two orientations |
| B3 | 8.87 ln median PBM intensity, better of two orientations |
| B4 | 10.7 ln median PBM intensity, better of two orientations |
| B5 | 8.83 ln median PBM intensity, better of two orientations |
| B6 | 8.86 ln median PBM intensity, better of two orientations |
| B7 | 8.86 ln median PBM intensity, better of two orientations |
| B8 | 8.54 ln median PBM intensity, better of two orientations |
| B9 | 8.79 ln median PBM intensity, better of two orientations |
| B10 | 8.76 ln median PBM intensity, better of two orientations |
| B11 | 8.75 ln median PBM intensity, better of two orientations |
| B12 | 8.85 ln median PBM intensity, better of two orientations |
| B13 | 8.82 ln median PBM intensity, better of two orientations |
| B14 | 8.85 ln median PBM intensity, better of two orientations |
| B15 | 8.84 ln median PBM intensity, better of two orientations |
| B16 | 8.75 ln median PBM intensity, better of two orientations |
| B17 | 8.87 ln median PBM intensity, better of two orientations |
| B18 | 11 ln median PBM intensity, better of two orientations |
| B19 | 8.83 ln median PBM intensity, better of two orientations |
| B20 | 8.85 ln median PBM intensity, better of two orientations |
| B21 | 8.84 ln median PBM intensity, better of two orientations |

| Binder | binding signal |
| --- | --- |
| B22 | 8.41 ln median PBM intensity, better of two orientations |
| B23 | 8.78 ln median PBM intensity, better of two orientations |
| B24 | 8.86 ln median PBM intensity, better of two orientations |
| B25 | 8.8 ln median PBM intensity, better of two orientations |
| B26 | 10.8 ln median PBM intensity, better of two orientations |
| B27 | 8.76 ln median PBM intensity, better of two orientations |
| B28 | 8.77 ln median PBM intensity, better of two orientations |
| B29 | 8.88 ln median PBM intensity, better of two orientations |
| B30 | 8.8 ln median PBM intensity, better of two orientations |
| B31 | 8.82 ln median PBM intensity, better of two orientations |
| B32 | 8.85 ln median PBM intensity, better of two orientations |
| B33 | 8.75 ln median PBM intensity, better of two orientations |
| B34 | 8.8 ln median PBM intensity, better of two orientations |
| B35 | 10.7 ln median PBM intensity, better of two orientations |
| B36 | 8.88 ln median PBM intensity, better of two orientations |
| B37 | 8.77 ln median PBM intensity, better of two orientations |
| B38 | 8.88 ln median PBM intensity, better of two orientations |
| B39 | 8.75 ln median PBM intensity, better of two orientations |
| B40 | 8.82 ln median PBM intensity, better of two orientations |
| B41 | 8.78 ln median PBM intensity, better of two orientations |
| B42 | 8.83 ln median PBM intensity, better of two orientations |

These binders were tested against T2, PF3D7_0420300 D1 in the same assay as above. Conditions: tags: N-terminal GST (pGEX-4T-1), kept; label: surface-attached array probe.

| Binder | binding signal |
| --- | --- |
| B4 | 10.7 ln median PBM intensity, better of two orientations |
| B8 | 8.27 ln median PBM intensity, better of two orientations |
| B18 | 10.8 ln median PBM intensity, better of two orientations |
| B22 | 8.08 ln median PBM intensity, better of two orientations |
| B26 | 11 ln median PBM intensity, better of two orientations |
| B35 | 10.7 ln median PBM intensity, better of two orientations |
